Test results published in US20160229915A1 (Chugai, published 2016).

T1: mouse FcgRII extracellular domain, C-terminal His tag (mouse, UniProt P08101 30-210)
T1 construct: extracellular domain; also called mFcgRII; mFcγRII; not shown: C-terminal His tag
T1 sequence (looked up): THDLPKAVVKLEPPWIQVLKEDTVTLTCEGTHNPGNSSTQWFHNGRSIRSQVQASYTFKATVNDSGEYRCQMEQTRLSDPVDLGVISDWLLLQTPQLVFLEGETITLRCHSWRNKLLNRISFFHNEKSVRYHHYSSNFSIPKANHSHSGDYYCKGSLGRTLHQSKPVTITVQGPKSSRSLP

T2: mouse FcgRIII extracellular domain, C-terminal His tag (mouse, UniProt P08508 31-215)
T2 construct: extracellular domain; also called mFcgRIII; mFcγRIII; not shown: C-terminal His tag
T2 sequence (looked up): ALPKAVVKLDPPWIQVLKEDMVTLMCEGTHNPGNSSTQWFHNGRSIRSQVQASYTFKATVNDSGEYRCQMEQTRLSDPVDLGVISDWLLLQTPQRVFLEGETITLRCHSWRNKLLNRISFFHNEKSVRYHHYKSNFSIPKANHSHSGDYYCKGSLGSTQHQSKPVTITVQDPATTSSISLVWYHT

T3: mouse FcgRI extracellular domain, C-terminal His tag (mouse, UniProt P26151 25-297)
T3 construct: extracellular domain; also called mFcgRI; mFcγRI; not shown: C-terminal His tag
T3 sequence (looked up): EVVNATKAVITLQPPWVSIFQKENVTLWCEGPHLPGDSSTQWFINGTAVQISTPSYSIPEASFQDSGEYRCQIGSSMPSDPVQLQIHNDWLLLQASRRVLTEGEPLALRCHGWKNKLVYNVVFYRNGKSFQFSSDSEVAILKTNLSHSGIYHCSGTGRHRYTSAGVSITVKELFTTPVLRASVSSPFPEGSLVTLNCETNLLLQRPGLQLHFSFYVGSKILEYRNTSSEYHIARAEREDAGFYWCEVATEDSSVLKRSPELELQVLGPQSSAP

T4: mouse FcgRIV extracellular domain, C-terminal His tag (mouse, UniProt A0A0B4J1G0 21-203)
T4 construct: also called mFcgRIV; mFcγRIV
T4 sequence: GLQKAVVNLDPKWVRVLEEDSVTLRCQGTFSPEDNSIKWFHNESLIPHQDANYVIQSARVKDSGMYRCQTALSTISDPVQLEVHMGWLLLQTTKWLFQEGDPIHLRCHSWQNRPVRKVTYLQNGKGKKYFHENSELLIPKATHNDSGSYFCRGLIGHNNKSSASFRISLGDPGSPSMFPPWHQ


Columns and labels:
mouse FcRn [1] = biological target: T5, mouse FcRn (mouse, UniProt Q61559 22-297); experiment: SPR (Biacore); relative to mIgG1
T5 construct: also called mFcRn
T5 sequence (Q61559 22-297): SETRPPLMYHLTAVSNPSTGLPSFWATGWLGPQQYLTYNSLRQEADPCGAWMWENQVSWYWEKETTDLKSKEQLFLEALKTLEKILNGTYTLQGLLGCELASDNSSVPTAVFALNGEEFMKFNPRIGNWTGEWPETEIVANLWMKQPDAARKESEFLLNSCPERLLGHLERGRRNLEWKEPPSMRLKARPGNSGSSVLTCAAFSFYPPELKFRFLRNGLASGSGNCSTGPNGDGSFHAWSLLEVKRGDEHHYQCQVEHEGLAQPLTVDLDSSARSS
Procedure: (§1) Next, the binding to mFcRn was evaluated according to Reference Example 4-4.
(§2) Kinetic analysis was conducted on mouse FcRn and each antibody using Biacore T100, Biacore T200, Biacore A100, and Biacore 4000 (GE Healthcare Japan Corp.). An appropriate amount of protein L (ACTIGEN) was immobilized on Sensor Chip CM4 (GE Healthcare Japan Corp.) by the amine coupling method. The antibody of interest was captured onto the chip. Next, a diluted FcRn solution or a running buffer (as a control solution) was injected thereto so that the mouse FcRn was allowed to interact with the antibody captured on the sensor chip. The running buffer used was 50 mmol/L sodium phosphate, 150 mmol/L NaCl, and 0.05% (w/v) Tween 20 (pH 6.0), and each buffer was also used for diluting FcRn. 10 mmol/L glycine-HCl (pH 1.5) was used to regenerate the chip. The assay was conducted at 25° C. for all samples. From the sensorgram obtained by the assay, an association rate constant ka (1/Ms) and a dissociation rate constant […] (1/s) were calculated as kinetic parameters. The KD (M) of each antibody for mouse FcRn was calculated on the basis of the parameters. Biacore Evaluation Software (GE Healthcare Japan Corp.) was used in the calculation of each parameter.

[2] = biological target: T1, mouse FcgRII extracellular domain, …; experiment: SPR (Biacore); binding activity relative to naturally occurring mIgG1
Procedure: (§3) The two types of bispecific antibodies (MRAH-mIgG1mP3/MRAL-mk1//H54-mIgG1mN3/L28-mk1 and MRAH-mIgG1mP4/MRAL-mk1//H54-mIgG1mN4/L28-mk1) prepared by mouse IgG-type Fab arm exchange were tested for their binding to mouse FcgR and mouse FcRn according to Reference Example 4-3. Also, MRAH-mIgG1/MRAL-mk1 was prepared according to Reference Example 1 and assayed as a control.

[3] = biological target: T2, mouse FcgRIII extracellular domain, …; experiment: as above
Procedure: as §3

[4] = biological target: T3, mouse FcgRI extracellular domain, …; experiment: SPR (Biacore), antibody captured on chip, mFcgR extracellular domain as analyte
Procedure: as §3

[5] = biological target: T4, mouse FcgRIV extracellular domain, …; experiment: as above
Procedure: as §3

mouse FcRn [6] = biological target: T5, mouse FcRn; experiment: SPR (Biacore), antibody captured by protein L, mouse FcRn as analyte, pH 6.0, 25 C
Procedure: as §1, §2

[7] = biological target: T1, mouse FcgRII extracellular domain, …; experiment: SPR (Biacore), antibody captured on chip, His-tagged mFcgR extracellular domain as analyte, 25 C
Procedure: as §3

[8] = biological target: T2, mouse FcgRIII extracellular domain, …; experiment: as above
Procedure: as §3

[9] = biological target: T1, mouse FcgRII extracellular domain, …; experiment: SPR (Biacore); relative to mIgG1 (the reference itself)
Procedure: as §3

[10] = biological target: T2, mouse FcgRIII extracellular domain, …; experiment: as above
Procedure: as §3

mouse FcRn [11] = biological target: T5, mouse FcRn; experiment: as above
Procedure: as §1, §2

fold KD (mouse FcRn [1]) | KD fold mFcgRII [2] | KD fold mFcgRIII [3] | binding result [4] | binding result [5] | Kd (mouse FcRn [6]) | Kd [7] | Kd [8] | KD fold mFcgRII [9] | KD fold mFcgRIII [10] | fold KD (mouse FcRn [11]) | Binder
1.2 fold | 1.2 fold | 1.2 fold | no binding | no binding | 2100 nM | 670 nM | 670 nM | – | – | – | MRAH-mIgG1mP3/MRAL-mk1//H54-mIgG1mN3/L28-mk1 (bispecific antibody, Product of mouse IgG1-type Fab arm exchange (D399K on one H chain, K409D on the other); formation efficiency 89.2%, so the preparation may hold some homo variant; also called mIgG1mP3/mN3; mP3/mN3) heavy 1: QVQLQESGPGLVRPSQTLSLTCTVSGYSITSDHAWSWVRQPPGRGLEWIGYISYSGITTYNPSLKSRVTMLRDTSKNQFSLRLSSVTAADTAVYYCARSLARTTAMDYWGQGSLVTVSSAKTTPPSVYPLAPGSAAQTNSMVTLGCLVKGYFPEPVTVTWNSGSLSSGVHTFPAVLQSDLYTLSSSVTVPSSTWPSETVTCNVAHPASSTKVDKKIVPRDCGCKPCICTVPEVSSVFIFPPKPKDVLTITLTPKVTCVVVDISKDDPEVQFSWFVDDVEVHTAQTQPREEQFNSTFRSVSELPIMHQDWLNGKEFKCRVNSAAFPAPIEKTISKTKGRPKAPQVYTIPPPKEQMAKDKVSLTCMITDFFPEDITVEWQWNGQPAENYKNTQPIMKTDGSYFVYSKLNVQKSNWEAGNTFTCSVLHEGLHNHHTEKSLSHSPGK light 1: DIQMTQSPSSLSASVGDRVTITCRASQDISSYLNWYQQKPGKAPKLLIYYTSRLHSGVPSRFSGSGSGTDFTFTISSLQPEDIATYYCQQGNTLPYTFGQGTKVEIKRADAAPTVSIFPPSSEQLTSGGASVVCFLNNFYPKDINVKWKIDGSERQNGVLNSWTDQDSKDSTYSMSSTLTLTKDEYERHNSYTCEATHKTSTSPIVKSFNRNEC heavy 2: QVQLQESGPGLVKPSETLSLTCAVSGYSISDDQAWSWVRQPPGEGLEWIGYISYSGITNYNPSLKGRVTISRDTSKNQFSLKLSSVTAADTAAYYCARSLARTTAMDYWGEGTLVTVSSAKTTPPSVYPLAPGSAAQTNSMVTLGCLVKGYFPEPVTVTWNSGSLSSGVHTFPAVLQSDLYTLSSSVTVPSSTWPSETVTCNVAHPASSTKVDKKIVPRDCGCKPCICTVPEVSSVFIFPPKPKDVLTITLTPKVTCVVVDISKDDPEVQFSWFVDDVEVHTAQTQPREEQFNSTFRSVSELPIMHQDWLNGKEFKCRVNSAAFPAPIEKTISKTKGRPKAPQVYTIPPPKEQMAKDKVSLTCMITDFFPEDITVEWQWNGQPAENYKNTQPIMDTDGSYFVYSDLNVQKSNWEAGNTFTCSVLHEGLHNHHTEKSLSHSPGK light 2: DIQMTQSPSSLSASVGDSVTITCQASQDISSYLNWYQQKPGKAPELLIYYGSELHSGVPSRFSGSGSGTDFTFTISSLEAEDAATYYCQQGNSLPYTFGQGTKVEIERADAAPTVSIFPPSSEQLTSGGASVVCFLNNFYPKDINVKWKIDGSERQNGVLNSWTDQDSKDSTYSMSSTLTLTKDEYERHNSYTCEATHKTSTSPIVKSFNRNEC
– | – | – | no binding | no binding | 2500 nM | 820 nM | 790 nM | 1 fold | 1 fold | 1 fold | MRAH-mIgG1/MRAL-mk1 (antibody, Control with mouse IgG1 H chain constant region and mouse kappa constant region; also called naturally occurring mIgG1) heavy: QVQLQESGPGLVRPSQTLSLTCTVSGYSITSDHAWSWVRQPPGRGLEWIGYISYSGITTYNPSLKSRVTMLRDTSKNQFSLRLSSVTAADTAVYYCARSLARTTAMDYWGQGSLVTVSSAKTTPPSVYPLAPGSAAQTNSMVTLGCLVKGYFPEPVTVTWNSGSLSSGVHTFPAVLQSDLYTLSSSVTVPSSTWPSETVTCNVAHPASSTKVDKKIVPRDCGCKPCICTVPEVSSVFIFPPKPKDVLTITLTPKVTCVVVDISKDDPEVQFSWFVDDVEVHTAQTQPREEQFNSTFRSVSELPIMHQDWLNGKEFKCRVNSAAFPAPIEKTISKTKGRPKAPQVYTIPPPKEQMAKDKVSLTCMITDFFPEDITVEWQWNGQPAENYKNTQPIMDTDGSYFVYSKLNVQKSNWEAGNTFTCSVLHEGLHNHHTEKSLSHSPGK light: DIQMTQSPSSLSASVGDRVTITCRASQDISSYLNWYQQKPGKAPKLLIYYTSRLHSGVPSRFSGSGSGTDFTFTISSLQPEDIATYYCQQGNTLPYTFGQGTKVEIKRADAAPTVSIFPPSSEQLTSGGASVVCFLNNFYPKDINVKWKIDGSERQNGVLNSWTDQDSKDSTYSMSSTLTLTKDEYERHNSYTCEATHKTSTSPIVKSFNRNEC
1.3 fold | 1.2 fold | 1.2 fold | no binding | no binding | 1900 nM | 670 nM | 680 nM | – | – | – | MRAH-mIgG1mP4/MRAL-mk1//H54-mIgG1mN4/L28-mk1 (bispecific antibody, Product of mouse IgG1-type Fab arm exchange (D399R on one H chain, K409E on the other); formation efficiency 89.9%, so the preparation may hold some homo variant; also called mIgG1mP4/mN4; mP4/mN4) heavy 1: QVQLQESGPGLVRPSQTLSLTCTVSGYSITSDHAWSWVRQPPGRGLEWIGYISYSGITTYNPSLKSRVTMLRDTSKNQFSLRLSSVTAADTAVYYCARSLARTTAMDYWGQGSLVTVSSAKTTPPSVYPLAPGSAAQTNSMVTLGCLVKGYFPEPVTVTWNSGSLSSGVHTFPAVLQSDLYTLSSSVTVPSSTWPSETVTCNVAHPASSTKVDKKIVPRDCGCKPCICTVPEVSSVFIFPPKPKDVLTITLTPKVTCVVVDISKDDPEVQFSWFVDDVEVHTAQTQPREEQFNSTFRSVSELPIMHQDWLNGKEFKCRVNSAAFPAPIEKTISKTKGRPKAPQVYTIPPPKEQMAKDKVSLTCMITDFFPEDITVEWQWNGQPAENYKNTQPIMRTDGSYFVYSKLNVQKSNWEAGNTFTCSVLHEGLHNHHTEKSLSHSPGK light 1: DIQMTQSPSSLSASVGDRVTITCRASQDISSYLNWYQQKPGKAPKLLIYYTSRLHSGVPSRFSGSGSGTDFTFTISSLQPEDIATYYCQQGNTLPYTFGQGTKVEIKRADAAPTVSIFPPSSEQLTSGGASVVCFLNNFYPKDINVKWKIDGSERQNGVLNSWTDQDSKDSTYSMSSTLTLTKDEYERHNSYTCEATHKTSTSPIVKSFNRNEC heavy 2: QVQLQESGPGLVKPSETLSLTCAVSGYSISDDQAWSWVRQPPGEGLEWIGYISYSGITNYNPSLKGRVTISRDTSKNQFSLKLSSVTAADTAAYYCARSLARTTAMDYWGEGTLVTVSSAKTTPPSVYPLAPGSAAQTNSMVTLGCLVKGYFPEPVTVTWNSGSLSSGVHTFPAVLQSDLYTLSSSVTVPSSTWPSETVTCNVAHPASSTKVDKKIVPRDCGCKPCICTVPEVSSVFIFPPKPKDVLTITLTPKVTCVVVDISKDDPEVQFSWFVDDVEVHTAQTQPREEQFNSTFRSVSELPIMHQDWLNGKEFKCRVNSAAFPAPIEKTISKTKGRPKAPQVYTIPPPKEQMAKDKVSLTCMITDFFPEDITVEWQWNGQPAENYKNTQPIMDTDGSYFVYSELNVQKSNWEAGNTFTCSVLHEGLHNHHTEKSLSHSPGK light 2: DIQMTQSPSSLSASVGDSVTITCQASQDISSYLNWYQQKPGKAPELLIYYGSELHSGVPSRFSGSGSGTDFTFTISSLEAEDAATYYCQQGNSLPYTFGQGTKVEIERADAAPTVSIFPPSSEQLTSGGASVVCFLNNFYPKDINVKWKIDGSERQNGVLNSWTDQDSKDSTYSMSSTLTLTKDEYERHNSYTCEATHKTSTSPIVKSFNRNEC
